Data taken from patent publication US20250195685A1 (CAPSTAN THERAPEUTICS, published 2025).

B1: CBD1017ch whole antibody (chimeric CT8 antibody) (antibody, V domains shown)
VH: EVQLQQSGPELVKPGASVKISCKASRYTFTDYNLHWVKLSHEKSLEWIGFIYPYNGGTGYNQKFKNKAKLTVDYSSSTAYMELRSLTSVDAAVYYCARDHRYNEGVSFDYWGQGTTLTVSS
VL: NIVLTQSPASLAVSLGQRATISCRASESVDGFGNSFMNWYQQKPGQSPKLLIYLASNLESGVPARFSGSGSRTDFTLTIDPVEADDAATYYCQQNNEDPYTFGGGTKLEIK
notes: Chimeric antibody comprising the variable regions of the donor antibody CT8; detected with anti-human Fc
B2: CBD1033 whole antibody, human IgG1 with Fc-silencing mutations L234A, L235A and P329A (CBD1033-hIgG1-LALAPA) (antibody, V domains shown)
VH: QVQLVQSGAEVKKPGASVKVSCKASRYTFTDYNLHWVRQAPGQGLEWMGFIYPYNGGTGYAQKFQGRVTMTVDTSTSTAYMELSSLRSEDTAVYYCARDHRYNEGVSFDYWGQGTTVTVSS
VL: DIQLTQSPSSLSASVGDRATITCRASESVDGFGNSFMNWYQQKPGKAPKLLIYLASNLESGVPSRFSGSGSGTDFTLTISSVQPEDFATYYCQQNNEDPYTFGQGTKLEIKR
notes: On tLNPs the antibody was SATA-modified or AJICAP-thiolated (CBD1033.29) and conjugated to the LNP; also called CBD1033.3; CBD1033 IgG1

Legend:
[1] = target: T1, human CD8αα homodimer, recombinant protein (Acro Biosystems) (human, UniProt P01732 22-182); assay: BLI steady state, whole hIgG1-LALAPA antibody on CD8α-His (Ni-NTA sensor), 30 °C
T1 construct: also called CD8αα antigen; biotinylated CD8α recombinant protein (CDA-H82E3)
T1 sequence (P01732 22-182 limits assumed): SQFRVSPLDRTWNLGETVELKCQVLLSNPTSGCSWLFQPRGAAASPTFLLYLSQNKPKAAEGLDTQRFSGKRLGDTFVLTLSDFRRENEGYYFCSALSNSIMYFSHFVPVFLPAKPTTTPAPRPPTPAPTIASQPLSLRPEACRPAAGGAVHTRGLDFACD

[2] = target: T1, human CD8αα homodimer, recombinant …; assay: BLI steady state analysis, whole antibody, sample kept at pH 7.2, 4C (unstressed)
Description: (§1) To assess affinity of whole antibodies, steady state analysis was used as the bivalent nature of both whole antibody and CD8α complicates kinetic analysis. 50 nM CD8α-His (that is, CD8α with a C-terminal oligohistidine tag; Acro) was immobilized on Ni-NTA sensor probes. Binding was analyzed with a three-fold antibody dilutions series: 60 nM, 20 nM, 6.67 nM, 2.22 nM, 0.74 nM, and 0.25 nM. The antigen-loaded sensors were incubated in the diluted solutions to capture the whole IgG antibody for 300 s to record the association phase. Sensors were incubated in the kinetic buffer for 900 s to record the dissociation phase. The spin speed was 1000 rpm for all steps except the antigen loading step which was 400 rpm to control density of the antigen. The temperature of the performed assays was at 30° C. during the association and dissociation phases. The sensor data were baseline subtracted and further analyzed in GatorOne software (version 2.10) to determine the equilibrium dissociation constants (KD) of the antibodies by fitting the signals of the steady states to the 1:1 binding model.

[3] = target: T1, human CD8αα homodimer, recombinant …; assay: BLI steady state analysis, whole antibody, sample stressed at pH 8.5, 40 °C, 7 days
Description: as §1

[4] = target: T2, human CD8 on cells (CD8-overexpressing HEK293T cells, SupT1, HPB-ALL, human T cells, transfected HEK293 of … (human, UniProt P01732 22-235)); assay: flow cytometry on CD8-overexpressing HEK293T cells, non-linear fit of normalized gMFI
T2 construct: whole, on cells; also called cell surface CD8
T2 sequence (P01732 22-235): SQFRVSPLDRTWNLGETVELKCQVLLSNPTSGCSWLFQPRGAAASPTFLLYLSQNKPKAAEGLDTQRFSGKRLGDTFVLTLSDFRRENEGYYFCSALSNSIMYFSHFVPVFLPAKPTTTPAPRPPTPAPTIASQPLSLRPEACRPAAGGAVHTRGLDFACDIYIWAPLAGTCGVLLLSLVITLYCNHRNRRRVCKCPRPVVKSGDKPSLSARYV
Description: To obtain the results shown in FIG. 3A, that determined EC₅₀ values for antigen-specific binding, CD8-overexpressing HEK293T cells were dissociated in Versine solution (PBS buffer at pH 7.4 supplemented with 0.5 mM EDTA), and 2×10⁵ total cells were transferred to a V-bottom 96 well culture plate (Corning). Cells were washed twice with Cell Staining buffer (#420201, Biolegend). Each anti-CD8α antibody with human IgG1 isotype and Fc-silencing mutations L234A, L235A and P329A was diluted in four-fold antibody titration series from 100 μg/mL to 6.1 ng/ml into Cell Staining buffer. eFluor 780 Fixable Viability dye (eBioscience) was also included during antibody solutions at a 1:4000 dilution. Cells were stained with each diluted antibody solution for 30 minutes on ice. Cells were then washed three times with Cell Staining buffer and primary antibody binding was detected by staining with anti-human Fc BV421 conjugate antibody (#410704, Biolegend) at 1:100 dilution for 30 minutes on ice. After staining with the secondary detection antibody, cells were washed three times with Cell Staining buffer, fixed in FluoroFix buffer (Biolegend) and kept at 4° C. in the dark until analysis. Flow cytometry analysis on each sample was performed on an Agilent NovoCyte flow cytometer. Flow cytometry data was analyzed by Flowjo 10 (Becton, Dickinson & Company) to measure the geometric median fluorescence intensity (gMFI) of the on-cell binding from each antibody. The gMFI values were normalized with the gMFI measured in the sample stained with only the secondary detection antibody and plotted against the concentration of the added antibodies. The binding curves were constructed using the Graphpad Prism software, and EC₅₀ values were determined by non-linear curve fitting.

[5] = target: T2, human CD8 on cells (CD8-overexpressing …); assay: flow cytometry, Human Expanded T cells Donor 6, gated on live CD8 T cells (via CD3+CD4-)
Description: (§2) To obtain the results shown in FIG. 8A and FIG. 8B, 5×10⁴ expanded primary T cells (human, cynomolgus macaque or rhesus monkey) were thawed and transferred to a V bottom 96-well culture plate (Corning). Cells were washed twice with Cell Staining buffer (#420201, Biolegend). Each anti-CD8α antibody was diluted in four-fold antibody titration series from 60 μg/mL to 0.057 ng/mL into Cell Staining buffer. Cells were stained with each diluted antibody solution for 30 minutes on ice. Cells were then washed three times with Cell Staining buffer and primary antibody binding was detected by staining with anti-human Fc BV421 conjugate antibody (#410704, Biolegend) at 1:200 dilution for 30 minutes on ice. […] Flow cytometry data was analyzed by Flowjo 10 (Becton, Dickinson & Company) to measure the geometric median fluorescence intensity (gMFI) of the on-cell binding from each antibody. The gMFI values were normalized with the gMFI measured in the sample stained with only the secondary detection antibody and plotted against the concentration of the added antibodies. The binding curves were constructed using Graphpad Prism software, and EC₅₀ values were determined by non-linear curve fitting.

[6] = target: T3, cynomolgus macaque CD8 on expanded primary T cells (cynomolgus macaque); assay: flow cytometry, Cyno Expanded T cells Donor 9, gated on CD4- T cells, anti-human Fc BV421
T3 construct: also called CD4- CD8+ cynomolgus macaque T cells
Description: Binding was measured by fluorescence from the BV421 fluorophore-conjugated anti-human Fc secondary antibody that recognize the binders. The gMFI was normalized to the gMFI of the secondary antibody in the absence of the anti-CD8α binders.
as §2, with “Cells were stained with each diluted antibody solution for 30 minutes on ice.” left out

Binder	Kd [1] [nM]	Kd [2] [nM]	Kd [3] [nM]	EC50 [4] [nM]	EC50 [5] [nM]	EC50 (read off the curve) [6] [µg/mL]
B1	0.58	0.36	0.53	2.75	0.356	~0.06
B2		1.45	2.12	2.78	0.767	~0.2
